# IntAct's records for PubMed 18927509
# B1: Cell cycle serine/threonine-protein kinase CDC5/MSD2 (Saccharomyces cerevisiae), P32562 (parent)
# chain: MSLGPLKAINDKQLNTRSKLVHTPIKGNTADLVGKENHFKQTKRLDPNNDHHHQPAQKKKREKLSALCKTPPSLIKTRGKDYHRGHFLGEGGFARCFQIKDDSGEIFAAKTVAKASIKSEKTRKKLLSEIQIHKSMSHPNIVQFIDCFEDDSNVYILLEICPNGSLMELLKRRKVLTEPEVRFFTTQICGAIKYMHSRRVIHRDLKLGNIFFDSNYNLKIGDFGLAAVLANESERKYTICGTPNYIAPEVLMGKHSGHSFEVDIWSLGVMLYALLIGKPPFQARDVNTIYERIKCRDFSFPRDKPISDEGKILIRDILSLDPIERPSLTEIMDYVWFRGTFPPSIPSTVMSEAPNFEDIPEEQSLVNFKDCMEKSLLLESMSSDKIQRQKRDYISSIKSSIDKLEEYHQNRPFLPHSLSPGGTKQKYKEVVDIEAQRRLNDLAREARIRRAQQAVLRKELIATSTNVIKSEISLRILASECHLTLNGIVEAEAQYKMGGLPKSRLPKIKHPMIVTKWVDYSNKHGFSYQLSTEDIGVLFNNGTTVLRLADAEEFWYISYDDREGWVASHYLLSEKPRELSRHLEVVDFFAKYMKANLSRVSTFGREEYHKDDVFLRRYTRYKPFVMFELSDGTFQFNFKDHHKMAISDGGKLVTYISPSHESTTYPLVEVLKYGEIPGYPESNFREKLTLIKEGLKQKSTIVTVD
# partner: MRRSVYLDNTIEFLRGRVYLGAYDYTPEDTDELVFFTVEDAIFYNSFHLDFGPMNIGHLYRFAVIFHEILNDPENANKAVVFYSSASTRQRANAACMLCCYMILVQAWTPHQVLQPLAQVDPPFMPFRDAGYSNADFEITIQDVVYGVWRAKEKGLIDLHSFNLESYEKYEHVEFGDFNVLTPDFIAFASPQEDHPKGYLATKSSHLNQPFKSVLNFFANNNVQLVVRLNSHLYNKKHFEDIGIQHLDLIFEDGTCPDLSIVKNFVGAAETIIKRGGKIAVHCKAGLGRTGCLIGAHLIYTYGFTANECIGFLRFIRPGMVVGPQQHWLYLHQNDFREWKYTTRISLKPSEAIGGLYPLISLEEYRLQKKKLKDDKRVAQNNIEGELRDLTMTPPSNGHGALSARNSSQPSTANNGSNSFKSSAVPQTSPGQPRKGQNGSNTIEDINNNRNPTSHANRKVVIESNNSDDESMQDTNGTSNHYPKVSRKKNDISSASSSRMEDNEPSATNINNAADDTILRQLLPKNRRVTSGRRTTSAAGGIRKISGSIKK
# Variants of: B1
# Conditions: with cdc14_yeast CDC14, Q00684
row,Variant,effect of a mutation on the interaction
1,H641A;K643M,decreasing interaction
